Assay results published in patent US20200197469A1.

Tests used:
[1] = biological target: purified HIV-1 gp120 (HIV-1); assay: SPR (Biacore); gp120 immobilized on the chip, MOMO30 flowed at 6.25 nM to 200 nM; triplicate on separate days
[2] = biological target: purified HIV-1 gp120 (HIV-1); assay: cell-based or functional assay

MOMO30 protein from Momordica balsamina
Kd [1]: 5800 nM | IC50 in MAGI infectivity assay, HIV-1 lab strain NL4-3 [2]: 0.032 nM
